± gives the standard deviation of the averaged measurements.
Test: total protein half-life in vivo (active degradation + dilution); higher = more stable protein
[1] = E. coli NCM3722 delta-clpP delta-lon delta-hslV, growth: N-lim chemostat, doubling time 6 h
[2] = E. coli NCM3722 delta-clpP, growth: N-lim chemostat, doubling time 6 h
[3] = E. coli NCM3722 delta-hslV, growth: N-lim chemostat, doubling time 6 h
[4] = E. coli NCM3722 delta-smpB, growth: N-lim chemostat, doubling time 6 h
[5] = wild type E. coli NCM3722, growth: C-lim chemostat, doubling time 3 h
[6] = wild type E. coli NCM3722, growth: C-lim chemostat, doubling time 6 h
[7] = wild type E. coli NCM3722, growth: C-lim chemostat, doubling time 12 h
[8] = wild type E. coli NCM3722, growth: N-lim chemostat, doubling time 6 h
[9] = wild type E. coli NCM3722, growth: N-lim chemostat, doubling time 12 h
[10] = wild type E. coli NCM3722, growth: P-lim chemostat, doubling time 6 h
[11] = wild type E. coli NCM3722, growth: P-lim chemostat, doubling time 12 h
[12] = E. coli NCM3722 delta-lon, growth: N-lim chemostat, doubling time 6 h

MAGINLNKKLWRIPQQGMVRGVCAGIANYFDVPVKLVRILVVLSIFFGLALFTLVAYIILSFALDPMPDNMAFGEQLPSSSELLDEVDRELAASETRLREMERYVTSDTFTLRSRFRQL [P0AFN2]
total protein half-life in vivo [1]: 5.469 ± 0.044 h | total protein half-life in vivo [2]: > 8 h | total protein half-life in vivo [3]: 5.48 ± 0.47 h | total protein half-life in vivo [4]: 4.53 ± 0.38 h | total protein half-life in vivo [5]: 2.498 ± 0.015 h | total protein half-life in vivo [6]: 3.81 ± 0.91 h | total protein half-life in vivo [7]: 6.7 ± 3.6 h | total protein half-life in vivo [8]: 4.862 ± 0.037 h | total protein half-life in vivo [9]: 9.24 ± 0.17 h | total protein half-life in vivo [10]: 7.55 h | total protein half-life in vivo [11]: 10 ± 0.79 h

MPIRVPDELPAVNFLREENVFVMTTSRASGQEIRPLKVLILNLMPKKIETENQFLRLLSNSPLQVDIQLLRIDSRESRNTPAEHLNNFYCNFEDIQDQNFDGLIVTGAPLGLVEFNDVAYWPQIKQVLEWSKDHVTSTLFVCWAVQAALNILYGIPKQTRTEKLSGVYEHHILHPHALLTRGFDDSFLAPHSRYADFPAALIRDYTDLEILAETEEGDAYLFASKDKRIAFVTGHPEYDAQTLAQEFFRDVEAGLDPDVPYNYFPHNDPQNTPRASWRSHGNLLFTNWLNYYVYQITPYDLRHMNPTLD
total protein half-life in vivo [1]: 3.26 ± 0.67 h | total protein half-life in vivo [2]: 1.85 ± 0.45 h | total protein half-life in vivo [3]: 1.61 ± 0.2 h | total protein half-life in vivo [12]: 1.87 ± 0.033 h | total protein half-life in vivo [4]: 1.52 ± 0.29 h | total protein half-life in vivo [5]: 2.61 ± 0.097 h | total protein half-life in vivo [6]: 3.27 ± 0.32 h | total protein half-life in vivo [7]: 4.92 ± 0.52 h | total protein half-life in vivo [8]: 1.58 ± 0.093 h | total protein half-life in vivo [9]: 2.14 ± 0.23 h | total protein half-life in vivo [10]: 3.94 ± 0.39 h | total protein half-life in vivo [11]: 6.4 ± 0.19 h

MQDSILTTVVKDIDGEVTTLEKFAGNVLLIVNVASKCGLTPQYEQLENIQKAWVDRGFMVLGFPCNQFLEQEPGSDEEIKTYCTTTWGVTFPMFSKIEVNGEGRHPLYQKLIAAAPTAVAPEESGFYARMVSKGRAPLYPDDILWNFEKFLVGRDGKVIQRFSPDMTPEDPIVMESIKLALAK
total protein half-life in vivo [1]: 5.18 ± 1.1 h | total protein half-life in vivo [2]: 4.68 ± 0.55 h | total protein half-life in vivo [3]: 4.23 ± 0.055 h | total protein half-life in vivo [12]: 4.73 ± 0.43 h | total protein half-life in vivo [4]: 4.24 ± 0.047 h | total protein half-life in vivo [5]: 2.82 ± 0.28 h | total protein half-life in vivo [6]: 4.93 ± 0.1 h | total protein half-life in vivo [7]: 7.87 ± 4.7 h | total protein half-life in vivo [8]: 3.99 ± 0.07 h | total protein half-life in vivo [9]: 6.05 ± 0.29 h | total protein half-life in vivo [10]: 4.87 ± 0.1 h | total protein half-life in vivo [11]: 11.1 ± 0.68 h

MKIRSQVGMVLNLDKCIGCHTCSVTCKNVWTGREGMEYAWFNNVETKPGIGYPKNWEDQEEWQGGWVRDVNGKIRPRLGNKMGVITKIFANPVVPQIDDYYEPFTFDYEHLHSAPEGKHIPTARPRSLIDGKRMDKVIWGPNWEELLGGEFEKRARDRNFEAMQKEMYGQFENTFMMYLPRLCEHCLNPSCVATCPSGAIYKREEDGIVLIDQDKCRGWRLCISGCPYKKIYFNWKSGKSEKCIFCYPRIESGQPTVCSETCVGRIRYLGVLLYDADRIEEAASTEREVDLYERQCEVFLDPHDPSVIEEALKQGIPQNVIDAAQRSPVYKMAMDWKLALPLHPEYRTLPMVWYVPPLSPIQSYADAGGLPKSEGVLPAIESLRIPVQYLANMLSAGDTGPVLRALKRMMAMRHYMRSQTVEGVTDTRAIDEVGLSVAQVEEMYRYLAIANYEDRFVIPTSHREMAGDAFAERNGCGFTFGDGCHGSDSKFNLFNSSRIDAINITEVRDKAEGE
total protein half-life in vivo [1]: 6.49 ± 0.73 h | total protein half-life in vivo [2]: 5.74 ± 0.49 h | total protein half-life in vivo [3]: 6.23 ± 0.64 h | total protein half-life in vivo [12]: 6.34 ± 1.3 h | total protein half-life in vivo [4]: 5.77 ± 1.2 h | total protein half-life in vivo [5]: 3.14 ± 0.27 h | total protein half-life in vivo [6]: 5.54 ± 0.12 h | total protein half-life in vivo [7]: 10.3 ± 0.17 h | total protein half-life in vivo [8]: 5.94 ± 0.089 h | total protein half-life in vivo [9]: 12.5 ± 0.46 h | total protein half-life in vivo [10]: 5.68 ± 0.26 h | total protein half-life in vivo [11]: 11.62 ± 0.051 h
